From the supplement of paper PMC5998384

Legend:
HeLa Kyoto [1] = assay: thermal stability score vs G1/S (z-score of summed log2 fold changes over temperatures); higher = more thermally stable than in G1/S
HeLa Kyoto [2] = assay: melting temperature (median over replicates), in situ; higher = more thermally stable
HeLa Kyoto [3] = assay: solubility change mitosis vs G1/S (difference of NP-40 vs SDS log2 ratios) (log2 ratio difference); higher = more soluble in mitosis
HeLa Kyoto [4] = assay: solubility in G1/S (NP-40 vs SDS abundance) (log2 ratio); higher = more soluble; conditions: cell cycle stage: G1/S
[5] = cell cycle stage: early G1 (4.5 h after nocodazole release)
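Wherever melting temperature (median over replicates), in situ is given: HeLa Kyoto cells synchronized by double thymidine or nocodazole block, proteins quantified by TMT10plex mass spectrometry, three independent biological replicates.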
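Wherever solubility change mitosis vs G1/S (difference of NP-40 vs SDS log2 ratios) is given: synchronized HeLa Kyoto cells (double thymidine block for G1/S, nocodazole release for mitosis), protein amounts in NP-40 versus SDS lysates quantified by mass spectrometry, three biological replicates.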
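Wherever solubility in G1/S (NP-40 vs SDS abundance) is given: HeLa Kyoto cells arrested at G1/S by double thymidine block, proteins quantified by TMT10plex mass spectrometry in mild NP-40 versus SDS extracts, three biological replicates.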
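Wherever thermal stability score vs G1/S (z-score of summed log2 fold changes over temperatures) is given: synchronized HeLa Kyoto cells, proteins quantified by TMT10plex mass spectrometry, three biological replicates, mitosis taken 0.5 h after nocodazole release, G1/S directly after double thymidine block.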

Sequence	thermal stability score (HeLa Kyoto [1]; [5])	thermal stability score (HeLa Kyoto [1]; cell cycle stage: mitosis)	melting temperature (HeLa Kyoto [2]; cell cycle stage: G1/S) [°C]	melting temperature (HeLa Kyoto [2]; cell cycle stage: mitosis) [°C]	solubility change mitosis (log2) (HeLa Kyoto [3])	solubility in G1/S (log2) (HeLa Kyoto [4])
MAGIIKKQILKHLSRFTKNLSPDKINLSTLKGEGQLTNLELDEEVLQNVLELPTWLAITRVYCNRASIRIQWTKLKTHPICLCLDKVEVEMKTCEDPRPPNGQSPIALASGQSEYGFAEKVVEGMFIIVNSITIKIHSKAFHASFELWQLQGYSVNPNWQQSDLRLTRITDPCRGEVLTFKEITWQTLRIEADATDNGDQDPVTTPLRLITNQGRIQIALKRRTKDCNVISSKLMFLLDDLLWVLTDSQLKAMMKYAESLSEAMEKSAHQRKSLAPEPVQITPPAPSAQQSWAQAFGGSQGNSNSSSSRLSQYFEKFDVKESSYHLLISRLDLHICDDSQSREPGVSANRLMGGAMQLTFRKMAFDYYPFHWAGDSCKHWVRHCEAMETRGQWAQKLVMEFQSKMEKWHEETGLKPPWHLGVDSLFRRKADSLSSPRKNPLERSPSQGRQPAFQPPAWNRLRSSCMVVRVDDLDIHQVSTAGQPSKKPSTLLSCSRKLHNLPTQVSAIHIEFTEYYFPDNQELPVPCPNLYIQLNGLTFTMDPVSLLWGNLFCLDLYRSLEQFKAIYKLEDSSQKDEHLDIRLDAFWLKVSFPLEKRERAELHRPQALVFSASGMIATNTRHAPHCSCSDLQSLFRGFAAAEFFHSNYDHFPKVPGGFSLLHMLFLHHAFQMDSCLPQPNTLPPQRPKASWDLWSVHFTQISLDFEGTENFKGHTLNFVAPFPLSIWACLPLRWQQAQARKLLLASEGRLKPSASFGSPVQSEALAPDSMSHPRSKTEHDLKSLSGLTEVMEILKEGSSGMDNKGPLTELEDVADVHMLVHSPAHVRVRLDHYQYLALLRLKEVLQRLQEQLTKDTESMTGSPLQNQTACIGVLFPSAEVALLMHPAPGAVDADSAGSDSTSLVDSELSPSEDRELKSDASSDQGPASPEKVLEESSIENQDVSQERPHSNGELQDSGPLAQQLAGKGHEAVESLQAKKLSRTQASSSPAALKPPAGRETAVNGQGELIPLKNIEGELSSAIHMTKDATKEALHATMDLTKEAVSLTKDAFSLGRDRMTSTMHKMLSLPPAKEPMAKTDEGVAAPVSGGAARLRFFSMKRTVSQQSFDGVSLDSSGPEDRISVDSDGSDSFVMLLESESGPESVPPGSLSNVSDNAGVQGSPLVNNYGQGSPAANSSVSPSGEDLIFHPVSVLVLKVNEVSFGIEVRGEDLTVALQAEELTLQQLGTVGLWQFLHGQCPGTCFQESSTLKTGHIRPAVGLRFEVGPGAAVHSPLASQNGFLHLLLHGCDLELLTSVLSGLGPFLEDEEIPVVVPMQIELLNSSITLKDDIPPIYPTSPGPIPITLAMEHVVLKRSDDGVFHIGAAAQDKPSAEVLKSEKRQPPKEQVFLVPTGEVFEQQVKELPILQKELIETKQALANANQDKEKLLQEIRKYNPFFEL [UHRF1BP1]	-1.63	-1.87	54.1	53.5	-0.154	-0.0773
MAGKAHRLSAEERDQLLPNLRAVGWNELEGRDAIFKQFHFKDFNRAFGFMTRVALQAEKLDHHPEWFNVYNKVHITLSTHECAGLSERDINLASFIEQVAVSMT [PCBD1]	1.22	-0.726	54.6	55.6	0.0567	0.0398
MAGKKNVLSSLAVYAEDSEPESDGEAGIEAVGSAAEEKGGLVSDAYGEDDFSRLGGDEDGYEEEEDENSRQSEDDDSETEKPEADDPKDNTEAEKRDPQELVASFSERVRNMSPDEIKIPPEPPGRCSNHLQDKIQKLYERKIKEGMDMNYIIQRKKEFRNPSIYEKLIQFCAIDELGTNYPKDMFDPHGWSEDSYYEALAKAQKIEMDKLEKAKKERTKIEFVTGTKKGTTTNATSTTTTTASTAVADAQKRKSKWDSAIPVTTIAQPTILTTTATLPAVVTVTTSASGSKTTVISAVGTIVKKAKQ [SAP30BP]	0.846	1.18	52.6	53.6	-0.0287	0.144
MAGPGPGAVLESPRQLLGRVRFLAEAARSLRAGRPLPAALAFVPREVLYKLYKDPAGPSRVLLPVWEAEGLGLRVGAAGPAPGTGSGPLRAARDSIELRRGACVRTTGEELCNGHGLWVKLTKEQLAEHLGDCGLQEGWLLVCRPAEGGARLVPIDTPNHLQRQQQLFGVDYRPVLRWEQVVDLTYSHRLGSRPQPAEAYAEAVQRLLYVPPTWTYECDEDLIHFLYDHLGKEDENLGSVKQYVESIDVSSYTEEFNVSCLTDSNADTYWESDGSQCQHWVRLTMKKGTIVKKLLLTVDTTDDNFMPKRVVVYGGEGDNLKKLSDVSIDETLIGDVCVLEDMTVHLPIIEIRIVECRDDGIDVRLRGVKIKSSRQRELGLNADLFQPTSLVRYPRLEGTDPEVLYRRAVLLQRFIKILDSVLHHLVPAWDHTLGTFSEIKQVKQFLLLSRQRPGLVAQCLRDSESSKPSFMPRLYINRRLAMEHRACPSRDPACKNAVFTQVYEGLKPSDKYEKPLDYRWPMRYDQWWECKFIAEGIIDQGGGFRDSLADMSEELCPSSADTPVPLPFFVRTANQGNGTGEARDMYVPNPSCRDFAKYEWIGQLMGAALRGKEFLVLALPGFVWKQLSGEEVSWSKDFPAVDSVLVKLLEVMEGMDKETFEFKFGKELTFTTVLSDQQVVELIPGGAGIVVGYGDRSRFIQLVQKARLEESKEQVAAMQAGLLKVVPQAVLDLLTWQELEKKVCGDPEVTVDALRKLTRFEDFEPSDSRVQYFWEALNNFTNEDRSRFLRFVTGRSRLPARIYIYPDKLGYETTDALPESSTCSSTLFLPHYASAKVCEEKLRYAAYNCVAIDTDMSPWEE [HECTD3]	0.000139	-0.669	51.8	51	-0.123	-0.0837
MAGPGWGPPRLDGFILTERLGSGTYATVYKAYAKKDTREVVAIKCVAKKSLNKASVENLLTEIEILKGIRHPHIVQLKDFQWDSDNIYLIMEFCAGGDLSRFIHTRRILPEKVARVFMQQLASALQFLHERNISHLDLKPQNILLSSLEKPHLKLADFGFAQHMSPWDEKHVLRGSPLYMAPEMVCQRQYDARVDLWSMGVILYEALFGQPPFASRSFSELEEKIRSNRVIELPLRPLLSRDCRDLLQRLLERDPSRRISFQDFFAHPWVDLEHMPSGESLGRATALVVQAVKKDQEGDSAAALSLYCKALDFFVPALHYEVDAQRKEAIKAKVGQYVSRAEELKAIVSSSNQALLRQGTSARDLLREMARDKPRLLAALEVASAAMAKEEAAGGEQDALDLYQHSLGELLLLLAAEPPGRRRELLHTEVQNLMARAEYLKEQVKMRESRWEADTLDKEGLSESVRSSCTLQ [ULK3]	-0.375	-0.212	49.9	49.6	-0.125	0.0298
